These results are taken from patent US20250092100A1.

For one assay, the target named is GST-Ran (UniProt P62826). As to the kind of experiment: GST pull-down, GST-Ran bait, lysate of tsA201 cells with FLAG-MOG1 as prey, anti-FLAG Western blot quantified.
The next assay deals with HA-tagged Ran (UniProt P62826). As to the kind of experiment: co-immunoprecipitation in tsA-201 cells, HA antibody pull-down of HA-Ran, anti-FLAG Western blot quantified.

In the case of “E50K MOG1 mutant tagged with FLAG (from UniProt Q9HD47 1-186)”, the results for the reduction of binding to Ran compared with the wild-type MOG1 with GST-Ran and in the assay with HA-tagged Ran were 95% and 92%, respectively.
